# Source: publication PMC3084661
# Read-outs that look alike come from different tables or passages of the source.
# Assays:
# Experiment in all cases: FRET or BRET
# [1] = biological target: S. oneidensis RNA polymerase core (α, β, β′, ω), assembled in vivo (Shewanella oneidensis MR-1) (UniProt Q8EK47)
# [2] = biological target: S. oneidensis RNA polymerase core (α, β, β′, ω), assembled in vivo (Shewanella oneidensis MR-1) (UniProt Q8EK47); remark: listed apart in the source
# [3] = biological target: S. oneidensis RNA polymerase core (α, β, β′, ω), assembled in vivo (Shewanella oneidensis MR-1) (UniProt Q8EK47); remark: listed apart in the source
substance,measurement,setting,value
Cy3B-labelled single-cysteine S. oneidensis σ^70 derivative N399C (from UniProt Q8EHE1 1-616) (natural protein),initial σ^70 retention (%),[1],59%
same,σ^70 retention half-life,[1],1.25 h
same,initial σ^70 retention (%),[2],45%
same,σ^70 retention half-life,[2],0.717 h
same,σ^70 retention half-life,[3],1.33 h
